US20230392135, “ENGINEERED CAS ENDONUCLEASE VARIANTS FOR IMPROVED GENOME EDITING” (PIONEER HI-BRED INTERNATIONAL, INC., published 2023)

T1: Cas-alpha 10 A40G (Syntrophomonas palmitatica, UniProt P0DW62 SEQ:1-497)
T1 chain: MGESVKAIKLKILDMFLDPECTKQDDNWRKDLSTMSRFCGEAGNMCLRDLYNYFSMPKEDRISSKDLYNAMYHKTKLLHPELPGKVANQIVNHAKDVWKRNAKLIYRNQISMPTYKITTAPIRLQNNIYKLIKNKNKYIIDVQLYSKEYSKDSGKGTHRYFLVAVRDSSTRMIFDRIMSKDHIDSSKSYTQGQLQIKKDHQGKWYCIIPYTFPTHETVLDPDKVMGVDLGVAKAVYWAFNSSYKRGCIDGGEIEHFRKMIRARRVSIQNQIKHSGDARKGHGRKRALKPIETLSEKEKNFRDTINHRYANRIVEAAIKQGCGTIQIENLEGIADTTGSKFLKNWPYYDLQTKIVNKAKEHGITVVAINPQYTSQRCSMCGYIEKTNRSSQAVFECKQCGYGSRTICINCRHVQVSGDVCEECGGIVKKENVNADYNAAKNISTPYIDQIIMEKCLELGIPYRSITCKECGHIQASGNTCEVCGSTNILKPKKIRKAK

T2: Cas-alpha 10 E81G (Syntrophomonas palmitatica, UniProt P0DW62 SEQ:1-497)
T2 chain: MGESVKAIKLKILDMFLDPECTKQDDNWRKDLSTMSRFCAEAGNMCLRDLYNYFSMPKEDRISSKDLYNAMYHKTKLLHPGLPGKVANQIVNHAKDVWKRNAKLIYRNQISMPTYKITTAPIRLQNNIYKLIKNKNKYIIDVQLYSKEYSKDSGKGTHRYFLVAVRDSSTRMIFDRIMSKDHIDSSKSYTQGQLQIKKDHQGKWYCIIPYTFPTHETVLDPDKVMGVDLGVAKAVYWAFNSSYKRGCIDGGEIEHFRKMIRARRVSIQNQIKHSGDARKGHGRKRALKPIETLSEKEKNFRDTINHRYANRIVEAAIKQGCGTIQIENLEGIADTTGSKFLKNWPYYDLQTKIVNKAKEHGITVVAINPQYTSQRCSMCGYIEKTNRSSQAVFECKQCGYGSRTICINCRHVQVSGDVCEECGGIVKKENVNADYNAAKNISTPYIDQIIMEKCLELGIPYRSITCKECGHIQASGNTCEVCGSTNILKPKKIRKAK

T3: Cas-alpha 10 A40G+E81G (Syntrophomonas palmitatica, UniProt P0DW62 SEQ:1-497)
T3 chain: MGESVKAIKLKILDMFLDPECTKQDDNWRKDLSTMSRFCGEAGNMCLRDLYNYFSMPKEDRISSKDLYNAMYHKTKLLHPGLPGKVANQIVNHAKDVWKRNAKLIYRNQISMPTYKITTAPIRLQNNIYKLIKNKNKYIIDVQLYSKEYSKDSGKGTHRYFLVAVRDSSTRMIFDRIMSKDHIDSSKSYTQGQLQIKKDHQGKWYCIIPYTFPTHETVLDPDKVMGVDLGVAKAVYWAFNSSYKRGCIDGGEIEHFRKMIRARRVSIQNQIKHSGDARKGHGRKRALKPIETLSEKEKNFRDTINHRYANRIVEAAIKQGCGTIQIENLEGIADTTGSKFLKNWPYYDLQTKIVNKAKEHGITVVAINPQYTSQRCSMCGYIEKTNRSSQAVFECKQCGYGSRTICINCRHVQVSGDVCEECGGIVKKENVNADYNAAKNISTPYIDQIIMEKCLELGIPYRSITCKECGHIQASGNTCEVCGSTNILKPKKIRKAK

T4: Cas-alpha 10 A40G+E81G+T335R (Syntrophomonas palmitatica, UniProt P0DW62 SEQ:1-497)
T4 chain: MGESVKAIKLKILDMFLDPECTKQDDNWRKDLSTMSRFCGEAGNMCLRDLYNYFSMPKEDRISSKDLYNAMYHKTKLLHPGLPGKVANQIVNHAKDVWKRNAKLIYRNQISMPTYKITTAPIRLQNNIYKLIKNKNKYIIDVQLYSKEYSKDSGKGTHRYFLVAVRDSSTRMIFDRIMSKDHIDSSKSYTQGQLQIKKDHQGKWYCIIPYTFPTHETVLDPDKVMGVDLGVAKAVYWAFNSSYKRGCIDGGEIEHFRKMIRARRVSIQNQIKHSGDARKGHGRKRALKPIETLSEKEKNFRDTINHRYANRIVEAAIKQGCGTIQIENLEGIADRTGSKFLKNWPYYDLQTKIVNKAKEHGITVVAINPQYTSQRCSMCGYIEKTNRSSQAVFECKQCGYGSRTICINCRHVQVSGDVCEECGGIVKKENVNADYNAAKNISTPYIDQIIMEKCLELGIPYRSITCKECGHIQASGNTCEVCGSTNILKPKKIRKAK


Columns and labels:
Conditions in all cases: tags: SV40 NLS; chain copies: 2
[1] = biological target: T1, Cas-alpha 10 A40G; experiment: cell_activity; PAM 5'-TTC; yeast, 45 C
[2] = biological target: T2, Cas-alpha 10 E81G; experiment: cell_activity; PAM 5'-TTC; yeast, 45 C
[3] = biological target: T3, Cas-alpha 10 A40G+E81G; experiment: cell_activity; PAM 5'-TTC; yeast, 45 C; >10-fold sectored colonies at 37 C
Experimental: The cells were then resuspended in 1 ml of EZ 2 solution and aliquoted and either stored at −70° C. or used in the next step. Transformation was performed next by adding 0.5-1 μg (in less than 5 μl) of 2 micron yeast plasmid DNA to 50 μl of competent cells. Optionally, double-stranded DNA repair template with homology flanking the expected Cas-alpha double-strand break site was also included (0.5 μl at 50 μM). After gently mixing in the DNA, 500 μl of EZ 3 solution was added. Next, cells were incubated at 30° C. for 60-90 min. flicking or vortexing the cells 3-4 times over the duration of the incubation. After transformation, cells were grown-out in YPD broth for ˜3 hours, pelleted, washed once with 1 ml of sterile water, resuspended in 1 ml of sterile water, and then ˜200 μl plated onto selective media (for example but not limited to 6.7 g/L yeast nitrogen base without amino acids (Becton Dickinson), 20 g/L glucose (Phytotechnology Labs), 1.92 g/L yeast histidine dropout media (MP Biomedicals) and 20 g/L Bacto Agar (Becton Dickinson)). To determine the culture conditions optimal for activity, cells were incubated at 30° C. until colonies formed, or at a range of temperatures (typically 37° C. and 45° C.) overnight and then placed back at 30° C. until colony growth was visible. […]

[4] = biological target: T4, Cas-alpha 10 A40G+E81G+T335R; experiment: cell_activity; PAM 5'-TTC; maize, 37 C
[5] = biological target: T3, Cas-alpha 10 A40G+E81G; experiment: cell_activity; PAM 5'-TTC; maize, 37 C

Binder	binding signal [1]	binding signal [2]	binding signal [3]	binding signal [4]	binding signal [5]
sgRNA1, ade2 target 2, 20 nt spacer ; ade2 target 2 (ssRNA ; dsDNA) RNA: AUUUACUCUGUUUCGCGCGCCAGGGCAGUUAGGUGCCCUAAAAGAGCGAAGUGGCCGAAAGGAAAGGCUAACGCUUCUCUAACGCUACGGCGACCUUGGCGAAAUGCCAUCAAUACCACGCGGCCCGAAAGGGUUCGCGCGAAACUGAGUAAUGAAAGUCGCAUCUUGCGUAAGCGCGUGGAUUGAAACUUUAGUGUAGGAACAUCAAC DNA 1: TTTAGTGTAGGAACATCAAC DNA 2: GTTGATGTTCCTACACTAAA	~2 fold vs wild type (red colonies, score 2)	~2 fold vs wild type (red colonies, score 2)	~3 fold vs wild type (red colonies, score 2)		
sgRNA IR ; IR target (ssRNA ; dsDNA) RNA: AUUUACUCUGUUUCGCGCGCCAGGGCAGUUAGGUGCCCUAAAAGAGCGAAGUGGCCGAAAGGAAAGGCUAACGCUUCUCUAACGCUACGGCGACCUUGGCGAAAUGCCAUCAAUACCACGCGGCCCGAAAGGGUUCGCGCGAAACUGAGUAAUGAAAGUCGCAUCUUGCGUAAGCGCGUGGAUUGAAACCACAGGGAGGGAGCAAACAA DNA 1: CACAGGGAGGGAGCAAACAA DNA 2: TTGTTTGCTCCCTCCCTGTG				~17 fold vs wild type indels	~5 fold vs wild type indels
